Reference: paper PMC7060239, “Two distinct modes of DNMT1 recruitment ensure stable maintenance DNA methylation” (Nature Communications, 2020)
Each block holds one binder with its values, some of them ahead of it.

Target: T1, PHD finger of human UHRF1 (residues 299–366) (human, UniProt Q96T88 299-366)
T1 construct: UHRF1, human, PHD finger, residues 299–366; also called hPHD; UHRF1 PHD finger; source: recombinant, purified (glutathione Sepharose 4B, HiTrap Q HP, Superdex75); not shown: GST, N-terminal, cleaved; SUMO-1, N-terminal, cleaved
T1 sequence (looked up): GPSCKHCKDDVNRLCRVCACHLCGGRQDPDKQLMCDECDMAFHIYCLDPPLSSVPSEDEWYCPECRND
Test: ITC; hPHD and PAF15_(2-11) or H3 peptides; VP-ITC; 10 mM HEPES-NaOH (pH 7.5), 150 mM NaCl, 0.25 mM TCEP; one-site model
Conditions: both partners purified

Kd: 1500 ± 100 nM
B1: N-terminal histone H3 peptide (peptide)
chain: ARTKQTARKST
modifications: Unmodified free N-terminus assumed (initiator Met removed). Peptide limits are not printed in the supplied text (ITC in Supplementary Fig. 2d). Mature H3 residues 1-11 taken by convention from UHRF1 …

Kd: 2200 ± 300 nM
B2: human PAF15 (residues 2–11) peptide (peptide, UniProt Q15004 2-11, looked up)
peptide: VRTKADSVPG
notes: PCNA-associated factor 15 (PAF15), human, residues 2–11; begins with 2VRTK5; also called hPAF15_(2-11); PAF15_(2-11); source: synthetic peptide (Toray Research Center)

binding result: binds
B3: hPAF15_(2-11)-K5A peptide (peptide, UniProt Q15004 2-11, looked up)
peptide: VRTAADSVPG
notes: PCNA-associated factor 15 (PAF15), human, residues 2–11; also called PAF15 K5A
